Measurements taken from PMC9852238.

What was measured:
[1] = molecular target: SARS-CoV-2 Delta Spike (14-1209, S2P) (SARS-CoV-2) (UniProt P0DTC2); assay: cryo-EM structure
[2] = molecular target: SARS-CoV-2 Omicron BA.1 Spike (14-1209, S2P) (SARS-CoV-2) (UniProt P0DTC2); assay: cryo-EM structure

With “SARS-CoV-2 Delta Spike (14-1209, S2P) (from UniProt P0DTC2 14-1209) (natural protein)” the stoichiometry N [1] was 3.

In the case of “SARS-CoV-2 Omicron BA.1 Spike (14-1209, S2P) (from UniProt P0DTC2 14-1209) (natural protein)”, the stoichiometry N [2] is reported as 3.
